From PMC9954413 (Cancers, 2023)

B1: UbcH13 (UBE2N) (enzyme, human)
chain: MAGLPRRIIKETQRLLAEPVPGIKAEPDESNARYFHVVIAGPQDSPFEGGTFKLELFLPEEYPMAAPKVRFMTKIYHPNVDKLGRICLDILKDKWSPALQIRTVLLSIQALLSAPNPDDPLANDVAEQWKTNEAQAIETARAWTRLYAMNNI
notes: human UbcH13 (UBE2N), E2 ubiquitin-conjugating enzyme; also called UbcH13 E2 enzyme
B2: Arkadia (RNF111) LONG, residues 876-994 (Ark LONG, 119 aa) (domain or fragment, human, UniProt Q6ZNA4 876-994, looked up)
chain: FRGNFEELIHLEERLGNVNRGASQGTIERCTYPHKYKKVTTDWFSQRKLHCKQDGEEGTEEDTEEKCTICLSILEEGEDVRRLPCMHLFHQVCVDQWLITNKKCPICRVDIEAQLPSES
notes: human Arkadia (RNF111), residues 876-994, 119 aa; RING domain with the non-RING elements; also called wt Ark LONG; source: expressed and purified as described elsewhere [31]
B3: Arkadia (RNF111) RING, residues 927-994 (Ark RING, 68 aa) (domain or fragment, human, UniProt Q6ZNA4 927-994, looked up)
chain: KQDGEEGTEEDTEEKCTICLSILEEGEDVRRLPCMHLFHQVCVDQWLITNKKCPICRVDIEAQLPSES
notes: human Arkadia (RNF111), residues 927-994, 68 aa; also called wt Ark RING; source: expressed and purified as described elsewhere [31]

Experiments:
Experiment in all cases: ITC; 1-3 mM E2 in the syringe injected (2 uL, 15-19 injections) into 100-300 uM Arkadia polypeptide in the cell; 25 °C; 50 mM KH2PO4, 50 mM K2HPO4 pH 7; single-site model
Conditions in all cases: both partners purified
[1] = target: B3
[2] = target: B2
UbcH7 (UBE2L3) = target: T1, UbcH7 (UBE2L3) (human, UniProt P68036 1-154)
T1 construct: human UbcH7 (UBE2L3), E2 ubiquitin-conjugating enzyme; also called wt UbcH7; source: expressed and purified as described elsewhere [21,32]

UbcH13 (UBE2N) = target: B1
UbcH5B (UBE2D2) = target: T2, UbcH5B (UBE2D2) (human, UniProt P62837 1-147)
T2 construct: His6-tag cleaved with thrombin; also called wt UbcH5B; wt E2

UbcH7 K96S = target: T3, UbcH7 K96S (human, UniProt P68036 1-154, K96S)
T3 construct: human UbcH7 (UBE2L3) with K96S (KPA motif changed to SPA); also called mutant UbcH7; source: site-directed mutagenesis; expressed and purified as the wild type

Binder	Kd (UbcH7 (UBE2L3))	Kd (UbcH13 (UBE2N))	Kd (UbcH5B (UBE2D2))	further results
B1				dH [1]: 3.4 kcal/mol; stoichiometry N [1]: 1.1; dH [2]: -2.3 kcal/mol; stoichiometry N [2]: 0.9
B2	4.3 ± 0.5 µM	51.9 ± 5 µM	2.7 ± 0.5 µM	
B3	27.3 ± 2 µM	264 ± 46 µM		Kd (UbcH7 K96S): 10.2 ± 0.6 µM
Arkadia LONG R983K (domain or fragment, human Arkadia (RNF111), residues 876-994, with R983K; also called Ark LONG R983K; source: site-directed mutagenesis; expressed and purified as the wild type) FRGNFEELIHLEERLGNVNRGASQGTIERCTYPHKYKKVTTDWFSQRKLHCKQDGEEGTEEDTEEKCTICLSILEEGEDVRRLPCMHLFHQVCVDQWLITNKKCPICKVDIEAQLPSES			5.5 ± 0.6 µM	
Arkadia LONG R983A (domain or fragment, human Arkadia (RNF111), residues 876-994, with R983A; also called Ark LONG R983A; source: site-directed mutagenesis; expressed and purified as the wild type) FRGNFEELIHLEERLGNVNRGASQGTIERCTYPHKYKKVTTDWFSQRKLHCKQDGEEGTEEDTEEKCTICLSILEEGEDVRRLPCMHLFHQVCVDQWLITNKKCPICAVDIEAQLPSES			8.4 ± 0.4 µM	
